# Publication PMC5741622, “Structure of a Wbl protein and implications for NO sensing by M. tuberculosis” (Nature Communications, 2017)
# T1: M. tuberculosis σ^ACTD fused to the T18 domain of Bordetella pertussis adenylate cyclase (Mycobacterium tuberculosis, UniProt P9WGI1 447-528)
# T1 construct: also called T18-σ^ACTD
# T1 sequence: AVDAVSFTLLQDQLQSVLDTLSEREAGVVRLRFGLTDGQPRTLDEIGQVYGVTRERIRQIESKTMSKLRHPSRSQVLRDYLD
# B1: Mycobacterium tuberculosis WhiB1, untagged, [4Fe-4S] form (holo-WhiB1), co-expressed with His-tagged σ^A or σ^ACTD (natural protein)
# chain: MDWRHKAVCRDEDPELFFPVGNSGPALAQIADAKLVCNRCPVTTECLSWALNTGQDSGVWGGMSEDERRALKRRNARTKARTGV
# modifications: [4Fe-4S] cluster coordinated by cysteine residues 9, 37, 40 and 46
# notes: Iron-sulfur cluster assembled in vivo; free [4Fe-4S]; WhiB1 seen at 9668 Da and apo-WhiB1 at 9315 Da in native ESI-MS; also called [4Fe-4S]-WhiB1; untagged WhiB1
# B2: His-tagged C-terminal domain (amino acids Ala447-Asp528) of M. tuberculosis σ^A (domain or fragment)
# chain: AVDAVSFTLLQDQLQSVLDTLSEREAGVVRLRFGLTDGQPRTLDEIGQVYGVTRERIRQIESKTMSKLRHPSRSQVLRDYLD
# notes: A thrombin cleavage site lies between the His6 tag and the domain; seen at 11,522 Da in native ESI-MS; also called His-σ^ACTD; σ^ACTD; not shown: His6, N-terminal, kept
# Legend:
# [1] = target: B2; assay: native MS; conditions: both partners purified
# [2] = target: T1, M. tuberculosis σ^ACTD fused to the T18 …; assay: two-hybrid; conditions: partners not purified
# [3] = target: B1; assay: pull-down; conditions: partners not purified
binder,measurement,setting,value
B1,stoichiometry N,[1],1
"M. tuberculosis WhiB1 fused to the T25 domain of Bordetella pertussis adenylate cyclase (natural protein, also called T25-WhiB1) MDWRHKAVCRDEDPELFFPVGNSGPALAQIADAKLVCNRCPVTTECLSWALNTGQDSGVWGGMSEDERRALKRRNARTKARTGV",β-galactosidase activity against the negative control (vectors only),[2],~20 fold
same,β-galactosidase activity against the positive control (Zip-Zip),[2],~3 fold lower
B2,binding result,[3],binds
